The source of these data is article PMC10177328, “High Intrinsic Oncogenic Potential in the Myc-Box-Deficient Hydra Myc3 Protein”.

As a reminder, the Kd is the equilibrium constant for the complex coming apart.

For the data set, the target named is T1, Hydra Myc3 bHLH-LZ (p13);Hydra Max bHLH-LZ (p13) (Hydra (strain  in the text …, UniProt A0A0H5FMB4;D0EM50 108-197;29-120, |)).
T1 sequence 1: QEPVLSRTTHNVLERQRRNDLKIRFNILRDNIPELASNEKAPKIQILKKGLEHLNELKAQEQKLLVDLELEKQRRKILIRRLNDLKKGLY
T1 sequence 2: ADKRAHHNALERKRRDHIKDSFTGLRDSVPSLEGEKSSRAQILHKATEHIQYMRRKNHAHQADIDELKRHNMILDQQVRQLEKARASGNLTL
The data set can be described thus: EMSA; 0-2000 nM protein; EMSA: 10 mM Tris-HCl pH 7.5, 0.5 mM EDTA, 65 mM KCl, 5 mM MgCl2, 1 mM DTT, 100 ug/mL BSA, 10% glycerol, 25 C, 45 min; native 6% PAGE. The note with it: protein: recombinant;recombinant, tags: N-terminal initiator Met, C-terminal His6;N-terminal initiator Met, copies: 1;1, label: 32P, blunt. Background: A gel shift assay detects complexes by their altered migration in electrophoresis.

B1: myc2 promoter E-box 18-mer (dsDNA)
DNA 1: ATAGCTCACGTGTCAATA
DNA 2: TATTGACACGTGAGCTAT
Turning to B1, the Kd was 16.3 nM.
